Values quoted from earlier work, collected in paper PMC6447450.

Biological target: Mcl-1 (Homo sapiens) (UniProt Q07820)
Sequence (Q07820 whole entry): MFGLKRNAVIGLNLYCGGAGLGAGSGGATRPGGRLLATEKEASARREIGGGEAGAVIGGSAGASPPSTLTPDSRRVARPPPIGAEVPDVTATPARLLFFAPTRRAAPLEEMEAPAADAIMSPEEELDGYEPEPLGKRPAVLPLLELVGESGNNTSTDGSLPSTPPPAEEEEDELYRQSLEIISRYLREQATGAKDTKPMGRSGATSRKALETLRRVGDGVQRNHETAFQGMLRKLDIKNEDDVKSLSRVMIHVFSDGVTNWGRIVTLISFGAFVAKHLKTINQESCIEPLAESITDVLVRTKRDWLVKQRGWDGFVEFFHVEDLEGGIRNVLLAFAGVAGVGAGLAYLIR

native BH3 peptide (BIM, 2PQK) BH3, sequence (O43521 143-165): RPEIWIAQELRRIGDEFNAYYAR

Question: Which Kd does the source give for “native BH3 peptide (BIM, 2PQK) BH3 (from UniProt O43521)” here?
Answer: 1 nM
